Measured values published in patent US20190119357A1, “MESSENGER RIBONUCLEIC ACIDS FOR THE PRODUCTION OF INTRACELLULAR BINDING POLYPEPTIDES AND METHODS OF USE THEREOF” (ModernaTX, Inc., priority 2015, published 2019).

Key:
Hep3B cells [1] = assay: Co-transfection of SQT-Bim-BH3 in MC3 LNPs with Bcl-2-like trap mRNA constructs, YOYO-3; format: cell-based; settings: 272 picomolar SQT-Bim-BH3 in MC3 LNPs, increasing amounts of trap mRNA, 12 hour time point
Description: YOYO-3 viability dye was used to assess apoptosis of cells.

cells = assay: Half-life determination by bio-orthogonal non-canonical amino acid tagging (BONCAT); format: cell-based; settings: SQT protein scaffold in cells, post-transfection, one-phase decay fit
Experimental: The half-life of the SQT protein scaffold in cells was determined by Bio-orthogonal non-canonical amino acid tagging (BONCAT). […] AHA contains a reactive group (a terminal azide), which can be conjugated to a fluorophore via click chemistry. Newly synthesized proteins in the cells were separated by molecular weight (SDS-PAGE) at various time points post-transfection and visualized via in-gel fluorescence. The fluorescent signal was quantified using Li-cor's Image Studio (Version 3.1). One-phase decay nonlinear regression fit was by GraphPad Prism (Version 6).

[2] = Pharmacokinetics of intracellular expression of SQT scaffold polypeptide in mouse livers in vivo; set-up: species or system mice; settings: mouse liver
Experimental: Studies were performed to assess the pharmacokinetics of intracellular expression of the SQT scaffold polypeptide in mouse livers in vivo following multiple dosing. Mice were dosed on day 0 and on day 7 with an LNP carrying an mmRNA construct encoding the SQT scaffold polypeptide. The construct lacked any presenting polypeptides at any of the insertion sites (i.e., the construct was a “dummy” construct of only the scaffold), and was labeled with a FLAG epitope tag. Following dosing with the LNPs, liver protein was recovered and analyzed for expression of the SQT scaffold using the FLAG epitope tag for detection and quantification by quantitative Western blot analysis (LICOR/Western). Protein amounts were normalized to vinculin.

Hep3B cells [3] = assay: Effect of insertion site position on apoptotic potency, YOYO3; format: cell-based; settings: Hep3B cells transfected with constructs
Experimental: BH3 domain was inserted into either the N-terminal insertion site, the loop 1 insertion site or the loop 2 insertion site of the SQT scaffold polypeptide. The mRNA sequences of these SQT-BID-BH3 constructs, with a FLAG epitope tag, are shown in SEQ ID NOs: 43-45, respectively. Corresponding mRNA sequences without the FLAG tag are shown in SEQ ID NOs: 46-48. Hep3B cells were transfected with the constructs and the apoptotic ability of the constructs was assessed using YOYO3 to determine cell death, as described above.

B1: Bcl-2 (D34A) del.C32: Bcl-2-like trap mRNA, SEQ ID NO: 82, FLAG tag (nucleic acid)
chain: ATGGCACACGCTGGTAGGACAGGCTACGACAACCGTGAGATTGTGATGAAGTATATTCACTATAAGCTGTCTCAAAGAGGCTACGAATGGGATGCGGGGGCCGTCGGGGCTGCCCCACCTGGTGCCGCCCCGGCTCCTGGGATTTTCTCTTCCCAGCCGGGACATACCCCTCATCCTGCCGCTTCTAGGGACCCTGTGGCAAGAACATCCCCTCTACAGACCCCTGCCGCCCCAGGTGCGGCTGCTGGCCCAGCGTTAAGTCCCGTTCCACCAGTCGTGCACCTTACCCTTAGGCAAGCGGGCGACGATTTCTCTAGGCGATACCGGAGGGACTTTGCCGAAATGTCATCACAGCTCCATCTTACTCCATTTACTGCCCGTGGCAGATTCGCCACCGTAGTGGAAGAACTCTTTCGAGACGGCGTAAATTGGGGGAGGATCGTGGCATTTTTCGAATTTGGAGGGGTTATGTGTGTGGAGAGCGTGAATCGGGAAATGTCTCCTCTGGTTGACAATATTGCCTTGTGGATGACCGAATATCTTAACAGGCACCTCCACACCTGGATTCAAGATAATGGTGGATGGGATGCGTTTGTGGAACTTTATGGGCCTTCAATGCGTGACTATAAGGACGACGACGACAAA
modifications: FLAG tag; Synthetic Bcl-2(D34A)del.C32 BH3 mRNA sequence with FLAG epitope tag
protection from apoptosis by SQT-Bim-BH3 (YOYO-3) (Hep3B cells [1]): all of the tested trap constructs except Bcl-2 (D34A) del.C32 were able to protect

B2: SQT scaffold: Stefin A Quadruple Mutant-Tracy scaffold polypeptide (SEQ ID NO: 70) expressed from a dummy mmRNA construct (protein)
chain: MIPRGLSEAKPATPEIQEIVDKVKPQLEEKTNETYGKLEAVQYKTQVLASTNYYIKVRAGDNKYMHLKVFNGPPGQNADRVLTGYQVDKNKDDELTGF
modifications: Synthetic SteA SQT scaffold amino acid sequence
half-life (cells): 33.31 h
time to peak protein levels ([2]; first dose (day 0) of LNP): approximately 20 hours
time at which protein levels were essentially finished ([2]; post-injection of first dose): approximately 160 hours
time to peak protein levels ([2]; second dose (day 7), post-injection): approximately 20 hours

B3: SQT(nt)BID-BH3: mRNA (SEQ ID NO: 43) encoding SQT with a single BID BH3 domain in the N-terminal insertion site (nucleic acid, listed as Homo sapiens)
chain: ATGATACCCAGACAAGAGGACATCATTCGTAACATCGCGCGACACCTGGCCCAGGTGGGGGACTCCATGGATCGATCAATCCCCCCTGGCTTATCCGAAGCTAAGCCAGCCACCCCTGAGATCCAAGAAATCGTCGACAAGGTCAAGCCCCAACTTGAAGAGAAAACTAATGAAACTTATGGTAAGCTCGAAGCCGTGCAATACAAGACTCAGGTCCTGGCGTCTACAAATTATTACATCAAGGTGAGGGCCGGGGACAATAAGTATATGCATCTGAAAGTCTTCAATGGCCCCCCTGGACAAAACGCAGATCGGGTGCTCACAGGATACCAGGTCGATAAAAATAAAGATGACGAACTTACTGGGTTTGATTATAAAGATGATGATGACAAG
modifications: (1)..(393) SQT(nt)BID-BH3 mRNA sequence with FLAG epitope tag
apoptotic potency (YOYO3 cell death) (Hep3B cells [3]): more potent than the SQT-BID-BH3 constructs with the BH3 domain inserted at either the loop 1 insertion site or the loop 2 insertion site
